Data taken from patent US20240261378A1 (UNM RAINFOREST INNOVATIONS, published 2024).
Blank lines part the entries; values can stand above or below the binder they belong to.

Legend:
endogenous TRIM16 = target: T1, endogenous TRIM16 (human, UniProt O95361 1-564); assay: co-IP of endogenous proteins, HeLa lysates
T1 construct: Endogenous protein, immunoprecipitated from cell lysates

Optineurin = Optineurin (UniProt Q96CV9 1-577, limits assumed); assay: GST-galectin-8 pull-down with Sequestosome 1-like receptors
Sequence of Optineurin (Q96CV9 whole entry): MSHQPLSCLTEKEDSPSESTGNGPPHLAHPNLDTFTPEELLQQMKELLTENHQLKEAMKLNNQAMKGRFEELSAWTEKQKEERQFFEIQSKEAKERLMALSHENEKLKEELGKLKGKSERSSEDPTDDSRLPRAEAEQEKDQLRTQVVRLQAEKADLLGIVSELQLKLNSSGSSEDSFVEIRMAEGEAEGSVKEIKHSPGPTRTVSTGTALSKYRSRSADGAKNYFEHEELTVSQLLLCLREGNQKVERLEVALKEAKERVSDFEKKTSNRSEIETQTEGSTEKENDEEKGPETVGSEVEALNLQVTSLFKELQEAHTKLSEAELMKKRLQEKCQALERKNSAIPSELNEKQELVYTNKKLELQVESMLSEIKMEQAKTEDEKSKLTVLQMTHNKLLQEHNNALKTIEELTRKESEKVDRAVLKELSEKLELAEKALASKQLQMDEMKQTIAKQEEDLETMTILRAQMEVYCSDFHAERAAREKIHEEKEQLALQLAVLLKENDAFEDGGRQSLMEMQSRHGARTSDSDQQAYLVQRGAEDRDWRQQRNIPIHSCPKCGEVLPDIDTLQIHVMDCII

[1] = target: T2, 35S-Myc-HA-TRIM21 (in vitro translated) (human, UniProt P19474 1-475, [35S]-methionine radiolabel); assay: GST pull-down of in vitro translated 35S-labelled TRIM
T2 construct: not shown: Myc-HA tag
T2 sequence (P19474 whole entry): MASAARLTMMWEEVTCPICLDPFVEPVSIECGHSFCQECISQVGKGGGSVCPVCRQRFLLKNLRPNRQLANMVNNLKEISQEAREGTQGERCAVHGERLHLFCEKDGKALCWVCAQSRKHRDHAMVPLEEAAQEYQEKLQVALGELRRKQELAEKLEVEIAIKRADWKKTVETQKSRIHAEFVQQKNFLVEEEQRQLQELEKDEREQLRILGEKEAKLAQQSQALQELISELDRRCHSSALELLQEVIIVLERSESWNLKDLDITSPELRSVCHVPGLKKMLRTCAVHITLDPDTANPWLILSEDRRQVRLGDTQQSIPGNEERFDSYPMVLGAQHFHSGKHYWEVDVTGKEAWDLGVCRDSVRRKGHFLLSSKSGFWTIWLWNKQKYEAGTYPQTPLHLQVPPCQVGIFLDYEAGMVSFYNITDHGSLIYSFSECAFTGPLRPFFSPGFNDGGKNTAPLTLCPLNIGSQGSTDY

[2] = target: T3, [35S] myc-HA-TRIM16 wild type (in vitro translated) (human, UniProt O95361 1-564, [35S]-methionine radiolabel); assay: as above
T3 construct: not shown: Myc-HA tag

binding result (endogenous TRIM16): binds
B1: endogenous ULK1 (enzyme, UniProt O75385 1-1050, looked up)
chain: MEPGRGGTETVGKFEFSRKDLIGHGAFAVVFKGRHREKHDLEVAVKCINKKNLAKSQTLLGKEIKILKELKHENIVALYDFQEMANSVYLVMEYCNGGDLADYLHAMRTLSEDTIRLFLQQIAGAMRLLHSKGIIHRDLKPQNILLSNPAGRRANPNSIRVKIADFGFARYLQSNMMAATLCGSPMYMAPEVIMSQHYDGKADLWSIGTIVYQCLTGKAPFQASSPQDLRLFYEKNKTLVPTIPRETSAPLRQLLLALLQRNHKDRMDFDEFFHHPFLDASPSVRKSPPVPVPSYPSSGSGSSSSSSSTSHLASPPSLGEMQQLQKTLASPADTAGFLHSSRDSGGSKDSSCDTDDFVMVPAQFPGDLVAEAPSAKPPPDSLMCSGSSLVASAGLESHGRTPSPSPPCSSSPSPSGRAGPFSSSRCGASVPIPVPTQVQNYQRIERNLQSPTQFQTPRSSAIRRSGSTSPLGFARASPSPPAHAEHGGVLARKMSLGGGRPYTPSPQVGTIPERPGWSGTPSPQGAEMRGGRSPRPGSSAPEHSPRTSGLGCRLHSAPNLSDLHVVRPKLPKPPTDPLGAVFSPPQASPPQPSHGLQSCRNLRGSPKLPDFLQRNPLPPILGSPTKAVPSFDFPKTPSSQNLLALLARQGVVMTPPRNRTLPDLSEVGPFHGQPLGPGLRPGEDPKGPFGRSFSTSRLTDLLLKAAFGTQAPDPGSTESLQEKPMEIAPSAGFGGSLHPGARAGGTSSPSPVVFTVGSPPSGSTPPQGPRTRMFSAGPTGSASSSARHLVPGPCSEAPAPELPAPGHGCSFADPITANLEGAVTFEAPDLPEETLMEQEHTEILRGLRFTLLFVQHVLEIAALKGSASEAAGGPEYQLQESVVADQISLLSREWGFAEQLVLYLKVAELLSSGLQSAIDQIRAGKLCLSSTVKQVVRRLNELYKASVVSCQGLSLRLQRFFLDKQRLLDRIHSITAERLIFSHAVQMVQSAALDEMFQHREGCVPRYHKALLLLEGLQHMLSDQADIENVTKCKLCIERRLSALLTGICA

binding result (Optineurin): no binding
binding result [1]: no binding
binding result [2]: no binding
B2: GST-Galectin-8 (other)
chain: MMLSLNNLQNIIYNPVIPFVGTIPDQLDPGTLIVIRGHVPSDADRFQVDLQNGSSMKPRADVAFHFNPRFKRAGCIVCNTLINEKWGREEITYDTPFKREKSFEIVIMVLKDKFQVAVNGKHTLLYGHRIGPEKIDTLGIYGKVNIHSIGFSFSSDLQSTQASSLELTEISRENVPKSGTPQLPSNRGGDISKIAPRTVYTKSKDSTVNHTLTCTKIPPMNYVSKRLPFAARLNTPMGPGRTVVVKGEVNANAKSFNVDLLAGKSKDIALHLNPRLNIKAFVRNSFLQESWGEEERNITSFPFSPGMYFEMIIYCDVREFKVAVNGVHSLEYKHRFKELSSIDTLEINGDIHLLEVRSW
notes: not shown: GST tag (fusion expressed in E. coli SoluBL21)
